The assay deals with T1, His-tagged C. albicans TATA box Binding Protein (TBP) (C. albicans, UniProt O43133 1-238).
T1 construct: Vector pET28a; fusion protein said to be 30 kDa; also called TBP1; TBP-pET28a; source: E. coli BL21 (DE3), purified (Ni-NTA)
T1 sequence: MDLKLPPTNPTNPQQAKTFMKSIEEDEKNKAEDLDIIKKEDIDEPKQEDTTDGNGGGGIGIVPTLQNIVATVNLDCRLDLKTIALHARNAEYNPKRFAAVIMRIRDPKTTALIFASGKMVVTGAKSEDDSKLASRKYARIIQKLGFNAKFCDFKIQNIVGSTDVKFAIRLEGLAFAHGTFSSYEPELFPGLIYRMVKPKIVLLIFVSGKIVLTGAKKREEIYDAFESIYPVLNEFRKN
The assay can be described thus: pull-down; GST-AAD and His-TBP incubated with Glutathione Sepharose 4B beads, 3 h, 4 C, 20 mM HEPES pH 7.5, 200 mM NaCl, 0.1 mM EDTA, 10% glycerol, 0.1% NP-40; washes with 500 mM NaCl; eluted with 10 mM reduced glutathione; immunoblot with anti-GST and anti-His. The following applies: both partners purified. (In general: A western blot detects proteins with antibodies after separation by electrophoresis.)

The results in this text go back to PMC10370356, “Molecular dissection studies of TAC1, a transcription activator of Candida drug resistance genes of the human pathogenic fungus Candida albicans” (Frontiers in Microbiology, 2023).

B1: GST-tagged Acidic Activation Domain (AAD) of Tac1p (domain or fragment)
chain: MNPSPTITNNTYNSNINTGSNSTGEPQVCYAQSPSYNASLSNIINNESTGRSPATSTSINQSMMNENYDLFNDYLIDNSAVNLPFSQFNNLPNFFFDNNLGI
notes: amplified from genomic DNA of strain SC5314; Vector pGEX-KG; fusion protein said to be 33 kDa; several closely spaced bands (degradation) on the anti-GST blot; The introduction gives other limits for the AAD (nucleotides 1354-2946); also called Tac1-AAD; TAC1-AAD; source: E. coli BL21 (DE3), purified (Glutathione Sepharose 4B)
On to B1, for which the binding result was “binds”.
